Measured values reported in patent US20180094062A1 (Hoffmann-La Roche, published 2018).
Values joined by “and” are separate entries in the source; they are usually repeats but may differ in a detail not shown here. Equal entries are not always repeated. Each block holds one binder with its values, some of them ahead of it.

Assays:
[1] = target: T1, TtSlyDcys-Her3; test: SPR Biacore T200, antibody captured, 25 C
T1 chain: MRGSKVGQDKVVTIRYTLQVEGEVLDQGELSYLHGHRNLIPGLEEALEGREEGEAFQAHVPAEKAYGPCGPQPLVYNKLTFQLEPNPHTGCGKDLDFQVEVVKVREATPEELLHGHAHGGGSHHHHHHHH
Experimental: A Biacore T200 instrument (GE Healthcare) was mounted with a CM5 series sensor. The sensor was normalized in HBS-ET buffer (10 mM HEPES pH 7.4, 150 mM NaCl, 3 mM EDTA, 0.05% w/v Tween 20) according to the manufacturer's instructions. The sample buffer was the system buffer supplemented with 1 mg/ml CMD (Carboxymethyldextran, Sigma #86524). The system operated at 25° C. 6500 RU RAM-Fcγ (relative units of Fcγ-fragment RamlgG, GE Healthcare) were immobilized according to the manufacturer's instructions using amine coupling EDC/NHS chemistry on all four flow cells. The sensor was deactivated using 1M ethanolamine. […] Concentration dependent kinetics were measured. […] All analytes were injected for 5 min association time and 10 min dissociation time at 100 μl/min flow rate. The sensor capture system was regenerated by a 3 min injection at 10 μl/min of 10 mM glycine pH 1.7. Where possible kinetic data was evaluated using the Biacore T200 evaluation software.

[2] = target: T2, human HER3, full length, on cells (T47D, MCF7, transfected HEK293) (human, UniProt P21860 20-1342); test: FACS on T47D cells, 0 minutes incubation
T2 construct: endogenous on T47D and MCF7 tumor cells, transient full length in HEK293 (formalin fixed for IHC); also called expressed HER3 ECD

[3] = target: T3, HER3 ECD-HRG complex (Heregulin-activated Her-3 ECD) (human, UniProt P21860 20-643); test: SPR Biacore 3000, antibody captured, 25 C
T3 construct: receptor-ligand complex made by preincubating HER3 ECD with a five-fold molar excess of Heregulin; also called Heregulin/Her-3 ECD; Heregulin-complexed Her-3 ECD
Experimental: (§1) A CM5 series sensor was mounted into the system and was normalized in HBS-ET buffer (10 mM HEPES pH 7.4, 150 mM NaCl, 3 mM EDTA, 0.005% w/v Tween 20) according to the manufacturer's instructions. The sample buffer was the system buffer supplemented with 1 mg/ml CMD (Carboxymethyldextran). The system operated at 25° C. 10000 RU RAM-Fey (relative units of Fey-fragment Rabbit Anti-Mouse IgG/Jackson Laboratories) were immobilized according to the manufacturer's instructions using EDC/NHS chemistry on all flow cells. The sensor was deactivated using 1M ethanolamine.

[4] = target: T4, human recombinant HER3 Extracellular Domain (HER3 ECD) (human, UniProt P21860 20-643); test: SPR Biacore T100, antibody captured, 25 C, Langmuir fit
T4 construct: 68 kDa; also called human-Her3-ECD
Experimental: as §1, with “(Carboxymethyldextran, Sigma #86524).” for “(Carboxymethyldextran).”, “6500” for “10000”, “RAM-Fcγ” for “RAM-Fey”, “Fcγ-fragment RamlgG, GE Healthcare)” for “Fey-fragment Rabbit Anti-Mouse IgG/Jackson Laboratories)”, “all four” for “all”
(§2) Analytes in solution were injected at different concentration steps of 0 nM, 1.1 nM, 3.7 nM, 11.1 nM, 33.1 nM and 90 nM for 3.5 min. The dissociation was monitored for 15 min. Where possible, kinetic signatures were evaluated according to a Langmuir fit.

[5] = target: T5, recombinant Thermus thermophilus SlyD FKBP-Her3 (TtSlyD-FKBP-Her3); test: as above
T5 construct: expressed in E. coli, the N-terminal methionine can be present or not; also called thermo SlyD-Her3; T.T.SlyD-Her3
T5 chain: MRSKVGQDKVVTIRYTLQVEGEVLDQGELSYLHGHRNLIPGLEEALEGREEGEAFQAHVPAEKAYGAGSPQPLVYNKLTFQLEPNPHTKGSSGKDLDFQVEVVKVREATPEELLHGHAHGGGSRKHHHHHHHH
Experimental: as §1, with “(Carboxymethyldextran, Sigma #86524).” for “(Carboxymethyldextran).”, “6500” for “10000”, “RAM-Fcγ” for “RAM-Fey”, “Fcγ-fragment RamlgG, GE Healthcare)” for “Fey-fragment Rabbit Anti-Mouse IgG/Jackson Laboratories)”, “all four” for “all”
as §2

[6] = target: T6, HER1, full length, on transfected HEK293 cells (human, UniProt P00533 25-1210); test: IHC on HEK293 cells transiently transfected with full length HER1
T6 construct: HEK293 transiently transfected with a plasmid coding for full length HER1; also called EGFR
Experimental: All selected clones were tested for reactivity and specificity in IHC. […] After an additional fixation in formalin overnight the Agarose blocks were embedded in paraffin. Untransfected HEK293 cells were used as negative controls and treated accordingly to the transfected cells. After paraffin embedding 3 μm thin sections were prepared using a microtome. The sections were mounted on glass microscopy slides and dried for 2 h. All further steps of the immunohistochemical staining procedure were carried out using a Ventana Benchmark XT. The slides were dewaxed and antigen retrieval was performed by applying heat for 1 hour. For antigen retrieval the Ventana buffer CC1 was used. The antibodies were used at a concentration of 1 μg/ml. For the detection of bound antibody the Ventana UltraView detection kit was used.

Kd [1]: 2.9 nM | MR (Molar Ratio) [1]: 1.7 | koff [1]: 0.00016 s⁻¹ | kon [1]: 54000 M⁻¹ s⁻¹
B1: anti-HER3 antibody M-43-01 (antibody, V domains shown)
VH: EVQLQQSGTVLARPGASVKMSCKASDYTFSNYWVHWVKQRPGQGLEWIGAIYPGNGDSTYYQKFKGKATLTAVTSTSTAYMDLSSLTNGDSAVYFCTRSGVGYNYYFDYWGQGTTLTVSS
VL: DIQMTQSPASLSASVGETVTITCRASENIYSNLAWYQQKQGKSPQLLVYIATNLADGVPSRFSGSGSGTQFSLKINSLQPEDLGSYYCQHFYGTPFTFGTGTKLEIE
notes: mouse hybridoma clone

fold binding level with HRG against without HRG [2]: ≥ 2 fold | MR (Molar Ratio) [3]: 1.1 | Kd [4]: 1.08 nM and 1 nM | koff [4]: 5.32e-05 s⁻¹ | kon [4]: 49300 M⁻¹ s⁻¹ | Kd [5]: 1.6 nM and 2 nM | koff [5]: 0.00014 s⁻¹ | kon [5]: 87000 M⁻¹ s⁻¹ | binding result [6]: no binding
B2: anti-HER3 antibody M-08-11 (antibody, V domains shown)
VH: QAYLQQSGAELMRPGASVRMSCQASGYTFTSYTIHWLKQTPRQGLEWIGAIYPRNGDFSYNQKFKDKASLTVDTSSSTAYMHLSSLTSEDSAVYFCARTINYGDWFAYWGQGTLVTVSA
VL: DIQMIQSPASLFVSEGETVIITCRASENIYSNLAWYHQKKGKSPQVLVYAAIKLADGVPLRFSGSGSGTQFSLKINSLQSEDFGSYYCQHFWGPPYTFGSGTNLEIK
notes: mouse monoclonal antibody from hybridoma, tested as hybridoma supernatant or as antibody; also called M-011
